Laboratory results reported in patent publication US20210292393A1 (published 2021).

Assays:
[1] = molecular target: SARS-CoV-2 full length spike protein (wild type) (SARS-CoV-2, UniProt P0DTC2 14-1208)
[2] = molecular target: SARS-CoV-2 spike protein (wild type), spike protein trimer (SARS-CoV-2, UniProt P0DTC2 14-1208)
[3] = molecular target: SARS-CoV-2 full-length spike protein on pseudotyped lentivirus (SARS-CoV-2, UniProt P0DTC2 14-1273); assay: cell-based or functional assay
[4] = molecular target: SARS-CoV-2 full length spike protein (wild type) (SARS-CoV-2, UniProt P0DTC2 14-1273)

Row | Binder | binding signal, bead assay (fold over isotype) [1] | Kd [2] | Pseudo-neutralization IC50 [3] | also measured
1 | antibody 288 (antibody, V domains shown) VH: EVQLVESGGGLVQPGGSLRLSCAASGFTFSSYDMHWVRQATGKGLEWVSAIGTAGDTYYPGSVKGRFTISRENAKNSLYLQMNSLRAGDTAVYYCARGANRDYDILTGYYSYYYYGMDVWGQGTTVTVSS VL: not shown | 495 |  |  | 
2 | anti-SARS-CoV-2 antibody 1203 (antibody, V domains shown) VH: QLRLQESGPGLVKPSETLSLTCTVSGGSISSSNFYWGWIRQPPGKGLEWIGSIYYSGSTHYNPSLKSRVTVSVDTSKNQFSLKLSSVTAADTAVYYCARLTYYYDSSGFIRAEPFDYWGQGILVTVSS VL: not shown |  | 0.302 nM | 0.02 µg/mL | 
3 | antibody 295 (antibody, V domains shown) VH: QVQLQESGPGLVKPSQTLSLTCTVSGGSISSSDYYWSWIRQPPGKGLEWIGYIYYSGSTYYNPSLKSRVTISVDTSKNQFSLKLSSVTAADTAVYYCARVVGYCSSTSCYVDYWGQGTLVTVSS VL: EIVLTQSPATLSLSPGERVTLSCRASQSVSSYLAWYQQKPGQAPRLLIYDASNRATGIPARFSGSGSGTDFTLTISSLEPEDFAVYYCQQRSNWPPGLTFGGGTKVEIK | 599 |  |  | 
4 | anti-SARS-CoV-2 antibody 933 (antibody, V domains shown) VH: QVQLVQSGAEVKKPGASVKVSCKASGYTFTTYDINWVRQATGQGLEWMGWMNPNSGYTDSAQKFQGRVTMTRNTSISTAYMELSSLRSEDTAVYYCASGRGVKTYYFDYWGQGTLVTVSS VL: SYELTQPPSVSVSPGQTASITCSGDKLGDKSACWYQQKPGQSPVLVICQDTKRPSGIPERFSGSNSGNTATLTISGTQAMDEADYYCQAWDSRTVVFGGGTKLTVL |  | 0.276 nM | 0.022 µg/mL | 
5 | anti-SARS-CoV-2 antibody 1009 (antibody, V domains shown) VH: QLQLQESGPGLVKPSQTLSLTCTVSGGSISSGSYYWSWIRQPAGKGLEWIGSIYTSGSTYYNPSLKSRVTISVDTSKNQFSLKLSSVTAADTAVYYCARKNWLQGSFDYWGQGTLVIVSS VL: NFMLTQPHSVSESPGKTVTISCTRSSGSIANNYVQWYQQRPGSAPTTVIYEDNQRPSGVPDRFSGSIDSSSNSASLTISGLKTEDEADYYCQSYDTSNHGVFGGGTKLTVL |  | 0.168 nM | 0.17 µg/mL | 
6 | anti-SARS-CoV-2 antibody 1118 (antibody, V domains shown) VH: EVQLVESGGGLVQPGGSLRLSCAASGFRFSNYEMNWVRQAPGKGLEWVSYISSTGGSIFYADSVKGRFTISRGDAKNSVYLQMNSLRAEDTAVYYCARAMYYYGSGTLDYWGQGTLVTVSS VL: DIQMTQSPSSLSASVGDRVTITCRASQSISRFLNWYQQKPGTAPKLLIYDVSSLQSGVPTRFSGSGSGTDFTLTISSLQPEDFATYYCQQSYTTPPAFGPGTRVDIK |  | 0.223 nM | 0.026 µg/mL | 
7 | antibody 299 (antibody, V domains shown) VH: not shown VL: EIVLTQSPATLSLSPGERATLSCRASQSVSSYLAWYQQKPGQAPRLLIYDASNRATGIPARFSGSGSGTDFTLTISSLEPEDFAVYYCQQRSNWPWTFGQGTKVEIK | 1.43 |  |  | 
8 | antibody 260 (antibody, V domains shown) VH: EVQLVESGGGLVQPGRSLRLSCAASGFTFDYYAMHWVRQAPGKGLEWVSGISWNSGTIGYADSVKGRFTISRDNAKNSLYLQMNSLRAEDTALYYCAKDSRPSGRYYYGMDVWGQGTTVTVSS VL: not shown |  |  |  | median fluorescence intensity, fold over isotype control [4]: 10.3 fold over isotype
9 | anti-SARS-CoV-2 antibody 1098 (antibody, V domains shown) VH: DVQLVQSGAEVKKPGESLKISCKGSGYRFTSYWIAWVRQMPGKGLEWMGIIYPGDSDTRYSPSFQGQVTISADKSISTAYLQWSSLKASDTAMYYCASQAAAGYFYYMDVWGKGTTVTVSS VL: not shown |  | 0.173 nM | 0.087 µg/mL | 
10 | antibody 301 (antibody, V domains shown) VH: QVQLVQSGAEVKKPGASVKVSCKVSGYTLTELSMHWVRQAPGKGLEWMGGFDPEDGETIYAQKFQGRVTMTEDTSTDTAYMELSSLRSEDTAVYYCATAFCGGDCYPPDALDIWGQGTMVTVSS VL: DIQMTQSPSSVSASVGDRVTITCRASQGISSWLAWYQQKPGKAPKLLIYAASSLQSGVPSRFSGSGSGTDFTLTISSLQPEDFATYYCQQANSFPLTFGGGTKVEIK [antibody 301, listing 1 of 2 here] |  |  |  | median fluorescence intensity, fold over isotype control [4]: 29.7 fold over isotype
11 | antibody 301 (antibody, V domains shown) VH: QVQLVQSGAEVKKPGASVKVSCKVSGYTLTELSMHWVRQAPGKGLEWMGGFDPEDGETIYAQKFQGRVTMTEDTSTDTAYMELSSLRSEDTAVYYCATAFCGGDCYPPDALDIWGQGTMVTVSS VL: DIQMTQSPSSVSASVGDRVTITCRASQGISSWLAWYQQKPGKAPKLLIYAASSLQSGVPSRFSGSGSGTDFTLTISSLQPEDFATYYCQQANSFPLTFGGGTKVEIK [antibody 301, listing 2 of 2 here] | 865 |  |  | 
12 | antibody 294 (antibody, V domains shown) VH: EVQLVESGGGLVQPGGSLRLSCAASGFTVSSNYMNWVRQAPGKGLEWVSVIYSGGSTYYADSVKGRFTISRDNSKNTLYLQMNSLRAEDTAVYYCARDLGPSGMDVWGQGTTVTVSS VL: DIQMTQSPSSVSASVGDRVTITCRASQGISSWLAWYQQKPGKAPKLLIYAASSLQSGVPSRFSGSGSGTDFTLTISSLQPEDFATYYCQQANSFPLFGGGTKVEIK | 1230 |  |  | 
13 | antibody 290 (antibody, V domains shown) VH: QVHLVQSGAEVKKPGASVKVSCAASGYTFNNYGVSWVRQAPGQGLEWMGWISASNGNTKYAQNLQGRVTMTTDTSTSTAYMELRSLRSDDTAVYYCARDLVGPTAPNYYYGMDVWGQGTAVTVSS VL: QSVLTQPPSVSGAPGQRVTISCTGSSSSIGAGYDVHWYQQLPGTAPKLLIYANSNRPSGVPDRLSGSKSGTSASLAITGLQAEDEADYYCQSYDSSLSGYVFGTGTKVTVL | 1.16 |  |  | 
14 | antibody 266 (antibody, V domains shown) VH: QVQLVESGGGVVQPGRSLRLSCAASGFNLSNYAMHWVRQPSGKGLEWVSLISYDGSIKYYTDSVKGRFTVSGDNSKNTLFLQMNSLRPDDSALYYCVRGGVSGPNSFDMWGQGTTVTVSS VL: DVVMTQSPLSLPVTLGQPASISCRSSQSLVYSDGNTYVNWFQQRPGQSPRRLIYQVSIRASGVPDRFSGSGSGTDFALKISRVEAEDVGVYYCMQGTHWPVTFGQGTKVEIK | 473 |  |  | 
15 | anti-SARS-CoV-2 antibody 923 (antibody, V domains shown) VH: EVQLVESGGGVVRPGGSLRLSCAASGFIFDDYDMTWVRQAPGKGLEWVSGISWNGGNTGYADSVKGRFTISRDNAKNSLYLQMNSLRAEDTALYHCAVIMSPIPRYSGYDWAGGAFDIWGQGTMVTVSS VL: SSELTQDPAVSVALGQTVRITCQGDSLRSYYASWYQQKPGQVPILVIYDKNNRPSGIPDRFSGSSSGNTASLTITGAQAEDEADYYCNSRDSSGNAVVFGGGTKLTVL |  | 0.035 nM | 0.093 µg/mL | 
16 | antibody 317 (antibody, V domains shown) VH: QVQLVQSGAEVKKPGASVKVSCKVSGYTLTELSMHWVRQAPGKGLEWMGGFDPEDGETIYAQKFQGRVTMTEDTSTDTAYMELSSLRSEDTAVYYCASSPAAAGTSQYYYYYGMDVWGQGTTVTVSS VL: not shown |  |  |  | median fluorescence intensity, fold over isotype control [4]: 11.2 fold over isotype
17 | antibody 300 (antibody, V domains shown) VH: QVQLVESGGGVVQPGRSLTLSCAASGFTFSSYAMHWVRQAPGKGLEWVALISYDGNNKYYADSVKGRFTFSRDNSKNTLYLQMNSLRAEDTAVYYCARTNSGSYRTAFDYWGQGTLVTVSS VL: DIQMTQSPSTLSASVGDRVTITCRASQSISIWLAWYQQKPGKAPKLLIYKASSLESGVPSRFSGSGSGTEFTLTISSLQPDDFATYYCQQYNSLWTFGQGTKVEIK | 721 |  |  | 
